Experiment [1] concerns the target P22 coat protein (bacteriophage P22) (UniProt P26747). Nature of the experiment: SEC-MALS.
The target of experiment [2] is P22-StAv particles (in vitro assembled) (bacteriophage P22 | not stated) (UniProt P26747). Put plainly: SEC-MALS. A general note: In gel filtration, larger molecules generally elute earlier.

Experimental findings from article PMC6482854 are described below.

Chain of UniProt P26747 (P26747 whole entry): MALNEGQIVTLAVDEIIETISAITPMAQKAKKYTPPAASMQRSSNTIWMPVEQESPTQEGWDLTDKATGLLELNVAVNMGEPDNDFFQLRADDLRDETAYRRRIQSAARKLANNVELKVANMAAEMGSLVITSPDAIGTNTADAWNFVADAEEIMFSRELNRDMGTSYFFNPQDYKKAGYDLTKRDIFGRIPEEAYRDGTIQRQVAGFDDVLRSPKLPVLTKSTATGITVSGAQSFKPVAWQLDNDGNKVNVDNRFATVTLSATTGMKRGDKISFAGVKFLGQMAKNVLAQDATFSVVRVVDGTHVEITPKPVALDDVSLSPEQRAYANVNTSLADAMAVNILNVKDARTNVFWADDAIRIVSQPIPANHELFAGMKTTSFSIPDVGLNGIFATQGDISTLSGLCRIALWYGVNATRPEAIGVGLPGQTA

In the case of “6xhis-StAv(15–159)-GAAG-ENLYFQS-GAAG-SP(142–303) (from UniProt P26748 142-303)”, in experiment [1], the copies of StAv-SP per capsid (copies per capsid) stood at 328.

Consider “biotinylated Cys-6xhis-SP(142–303)-GGGGG-ENLYFQS-GGGGG-GFP (from UniProt P26748 142-303)”, for which the stoichiometry N (copies per capsid) in experiment [2] is 36.
